Measurements from patent US20200164083A1 (priority 2016, published 2020).
Like-named read-outs stand apart in the source and are kept apart here.

Tests used:
[1] = system: Zucker diabetic fatty rats; assay: Chronic glucoregulatory effects in diabetic ZDF rats; assay type: in vivo; settings: single s.c. dose
Experimental: A total of 55 male Zucker diabetic fatty rats (ZDF-Lepr^fa/Crl) 6 weeks of age, and 180-200 gram (Charles River, USA) were single-housed and blood glucose and body weight were monitored bi-weekly for 2-4 weeks. Based on morning-fed blood glucose, outliers were excluded and 40 diabetic rats (average weight 340 g, blood glucose 9.7 to 22.5 mM, average 16.2 mM) were stratified into 4 groups of n=10. […]
Body-weights were monitored daily from day −3 throughout the study. Food and water intake were monitored on day −3 and daily for the first 11 days after the first dose then bi-weekly for the rest of the study period. Blood sampling was performed for pharmacokinetic studies 2 days after the first dose and then once weekly. HbA1c was measured day −3, and days 26 and 55 before OGTT, and the gastric emptying test was performed on day 26. For the OGTT, rats were semi-fasted overnight (60%) then PO glucose (2 g/kg in 10 mL) was administered at t=0. Blood glucose and insulin were measured at t=−60, −15, 0, 15, 30, 60 and 120 minutes after the glucose challenge. Gastric emptying was measured by administration of acetaminophen (100 mg/kg) with the OGTT on day 26, and blood levels were measured at 15, 30, 60 and 120 min.

[2] = mouse, in vivo
Experimental: B. The small amounts of microspheres needed in the mouse required a diluent to allow accurate dosing. […] This diluent served to keep the microspheres in a homogeneous suspension prior to and during administration and allowed dosing of convenient volumes. […] Syringes (0.5 mL U-100 insulin syringe with fixed 29 g×½″ needle, BD) were filled with the suspended microspheres under aseptic conditions. The needle assembly of each syringe was purged of air and weighed prior to and following dosing to determine the average mass of slurry delivered to each mouse.
Serum was prepared and frozen at −80° C. until analysis.
(§1) Serum samples were treated with 3 vol of ACN and centrifuged. The supernatant was dried, reconstituted and applied to a HPLC MS/MS system. The sample was eluted by a water/ACN gradient containing 0.1% formic acid. […] HPLC-MS/MS analyses were carried out on a Sciex 5500 QTrap® mass spectrometer coupled with a Shimadzu HPLC system. The Shimadzu HPLC system consisted of two LC-30AD HPLC pumps and a SIL-30AC autosampler with a 100-μL loop installed. […] The mass spectrometer was operated in positive electrospray ionization mode and the resolution setting used was the unit for both Q1 and Q3. […] Peak-area integrations were performed using Analyst software (version 1.5.2) from Sciex.
(§2) C vs. t curves (text) were analyzed using GraphPad Prism by non-linear regression of eq X (text) with weighting by 1/SD2; since ka>>k1 we modeled the single exponential phase of the terminal half-life using data points later than the first few days.

[3] = pH 9.4
[4] = rat, in vivo
Experimental: The content of each syringe was administered SC in the flank of six cannulated male Sprague Dawley rats (average weight 270 g).
as §1, §2

[5] = rat, in vivo, sc
Experimental: Each syringe contained 0.45 or 0.98 μmol peptide at 1.9 μmol peptide g^−1 slurry. The syringes were weighed prior to and after dosing to verify the mass delivered to each rat. Blood samples (300 μL) were drawn and the serum was frozen at −80° C. until analysis.
Frozen serum samples were thawed on ice and diluted between 5 and 20-fold in the provided rat serum. […] Data replicates were averaged and fitted to appropriate pharmacokinetic models.

hydrogel-[N28Q]exenatide microspheres R^1=CN: PEG hydrogel microspheres coupled with Nα-[1-cyano-7-azido-2-heptyloxycarbonyl]-[N28Q]exenatide
control of blood glucose [1]: effective at controlling blood glucose for at least one month
AUCinf [2]: 800 ± 323 nM-hr
Cmax [2]: 0.81 nM
Dose adjusted: Cmax, 0 [2]: 0.18 nM/(μmol/kg)
k × 10^4 ± SE [2]: 9.5 ± 1.0 h^−1
t1/2 [2]: 30.4 days
half-life of first-order release of free peptide [3]: 0.688 days
AUCinf [4]: 448 ± 91 nM-hr
Cmax [4]: 0.36 nM
Dose adjusted: Cmax, 0 [4]: 0.17 nM/(μmol/kg)
k × 10^4 ± SE [4]: 7.8 ± 1.3 h^−1
t1/2 [4]: 36.8 days
t1/2,β ([4]; sc): 36.7 days
t1/2 [5]: 31.7 days
